This note sets out measurements from article PMC4072699, “A Remorin Gene SiREM6, the Target Gene of SiARDP, from Foxtail Millet (Setaria italica) Promotes High Salt Tolerance in Transgenic Arabidopsis”.

In one data set the target is T1, SiAREB1 (Setaria italica, UniProt K3YTM2 1-357).
T1 sequence: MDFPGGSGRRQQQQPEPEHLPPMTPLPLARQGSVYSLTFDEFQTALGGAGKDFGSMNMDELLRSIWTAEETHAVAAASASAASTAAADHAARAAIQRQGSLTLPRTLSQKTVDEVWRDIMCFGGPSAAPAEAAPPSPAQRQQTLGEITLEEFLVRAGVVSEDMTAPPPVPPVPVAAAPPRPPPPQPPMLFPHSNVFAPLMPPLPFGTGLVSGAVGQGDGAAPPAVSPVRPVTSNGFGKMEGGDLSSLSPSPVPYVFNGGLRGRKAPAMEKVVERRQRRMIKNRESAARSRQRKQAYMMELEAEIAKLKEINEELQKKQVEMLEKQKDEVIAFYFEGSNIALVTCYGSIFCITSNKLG
The data set can be described thus: EMSA; LightShift Chemiluminescent EMSA Kit (Thermo), manufacturer's protocol; buffer, salt, pH and temperature not stated. To be noted: protein: recombinant; chain copies: 2; label: biotin. On the technique in general: Mobility shift assays separate free from complexed probe on a gel.

In data set [1] the target is T2, SiARDP (Setaria italica, UniProt K3Z7V1 1-332). The data set is described as above. The note with it: protein: recombinant; label: biotin.
T2 sequence (K3Z7V1 entry or part of it): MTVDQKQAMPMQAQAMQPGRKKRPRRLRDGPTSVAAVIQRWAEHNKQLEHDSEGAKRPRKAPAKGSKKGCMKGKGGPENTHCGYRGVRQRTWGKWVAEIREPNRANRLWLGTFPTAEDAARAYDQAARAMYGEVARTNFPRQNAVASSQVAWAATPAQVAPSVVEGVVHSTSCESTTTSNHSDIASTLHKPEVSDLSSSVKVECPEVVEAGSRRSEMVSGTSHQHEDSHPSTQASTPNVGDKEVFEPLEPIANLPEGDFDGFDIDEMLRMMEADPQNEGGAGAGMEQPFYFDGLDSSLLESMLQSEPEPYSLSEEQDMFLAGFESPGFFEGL
Data set [2] deals with T2, SiARDP. The data set can be described thus: competition; versus labeled P1; LightShift Chemiluminescent EMSA Kit (Thermo), manufacturer's protocol; buffer, salt, pH and temperature not stated. The note with it: protein: recombinant.
Data set [3] addresses T2, SiARDP. The data set can be described thus: competition; versus labeled P2; LightShift Chemiluminescent EMSA Kit (Thermo), manufacturer's protocol; buffer, salt, pH and temperature not stated. To be noted: protein: recombinant.
Data set [4] concerns the target T2, SiARDP. The data set can be described thus: competition; versus labeled P1; signal not obviously reduced; LightShift Chemiluminescent EMSA Kit (Thermo), manufacturer's protocol; buffer, salt, pH and temperature not stated. The note with it: protein: recombinant.
The target in data set [5] is T2, SiARDP. The data set can be described thus: competition; versus labeled P2; signal not obviously reduced; LightShift Chemiluminescent EMSA Kit (Thermo), manufacturer's protocol; buffer, salt, pH and temperature not stated. To be noted: protein: recombinant.

Substitutions are numbered along the chain they refer to.

B1: probe P1 (DRE1) (dsDNA)
DNA 1: GCGATGGTCCTCACCGACGACGCCGCCCGC
DNA 2: GCGGGCGGCGTCGTCGGTGAGGACCATCGC
On to B1, for which the binding result is reported as “no binding” in the data set with SiAREB1 and “binds” with SiARDP [1].

B2: competitor 1 (DRE1) (dsDNA)
DNA 1: B1 DNA 1
DNA 2: B1 DNA 2
For B2, in the data set with SiARDP [2], the binding result was “binds”.

B3: competitor 3 (DRE2) (dsDNA)
DNA 1: ATGGGTTCCTTGCCGACTCTTCTTTTAACC
DNA 2: GGTTAAAAGAAGAGTCGGCAAGGAACCCAT
As to B3, in the data set with SiARDP [3], the binding result was “binds”.

B4: probe P3 (ABRE) (dsDNA)
DNA 1: GCCGCGCGGGTACGTGCGAGCCCCGCGGTC
DNA 2: GACCGCGGGGCTCGCACGTACCCGCGCGGC
With B4, the binding result in the data set with SiAREB1 and in the data set with SiARDP [1] was “no binding” in each case.

B5: competitor 2 (mutant DRE1, ACCGAC to AAAAAC) (dsDNA)
DNA 1: B1 DNA 1 with C14A, C15A, G16A
DNA 2: B1 DNA 2 with C15T, G16T, G17T
As for B5, in the data set with SiARDP [4], the binding result is given as “no binding”.

B6: competitor 4 (mutant DRE2, GCCGAC to GAAAAA) (dsDNA)
DNA 1: ATGGGTTCCTTGAAAAATCTTCTTTTAACC
DNA 2: GGTTAAAAGAAGATTTTTCAAGGAACCCAT
Turning to B6, the binding result with SiARDP [5] is “no binding”.

B7: probe P2 (DRE2) (dsDNA)
DNA 1: B3 DNA 1
DNA 2: B3 DNA 2
Regarding B7, in the data set with SiAREB1, the binding result is listed as “no binding”.
